Assay results taken from US20100143336A1.

Biological target: human Toll-like Receptor 2, wild type (human) (UniProt O60603)
Assay: cell-based or functional assay

Chain of UniProt O60603 (O60603 21-784 D726E limits assumed): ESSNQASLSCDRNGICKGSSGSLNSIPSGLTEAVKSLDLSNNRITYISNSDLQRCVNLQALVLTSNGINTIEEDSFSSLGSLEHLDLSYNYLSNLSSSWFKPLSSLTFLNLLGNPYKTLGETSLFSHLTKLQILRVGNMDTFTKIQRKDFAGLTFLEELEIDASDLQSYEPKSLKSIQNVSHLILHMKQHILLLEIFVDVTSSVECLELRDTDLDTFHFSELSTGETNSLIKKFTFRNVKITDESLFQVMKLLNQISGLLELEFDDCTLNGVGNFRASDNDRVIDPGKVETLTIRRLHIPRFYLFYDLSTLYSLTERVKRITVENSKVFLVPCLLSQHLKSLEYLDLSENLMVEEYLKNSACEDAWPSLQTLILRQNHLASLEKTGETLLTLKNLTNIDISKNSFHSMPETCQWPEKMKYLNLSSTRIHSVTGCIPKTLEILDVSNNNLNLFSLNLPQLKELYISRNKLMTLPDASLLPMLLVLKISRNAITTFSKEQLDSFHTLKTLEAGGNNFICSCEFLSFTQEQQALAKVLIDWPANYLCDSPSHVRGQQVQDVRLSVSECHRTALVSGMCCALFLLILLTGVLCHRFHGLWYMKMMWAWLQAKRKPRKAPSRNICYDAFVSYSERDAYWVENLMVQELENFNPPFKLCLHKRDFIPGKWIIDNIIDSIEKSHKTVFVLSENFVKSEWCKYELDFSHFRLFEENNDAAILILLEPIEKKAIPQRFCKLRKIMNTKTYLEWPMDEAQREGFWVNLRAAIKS

TNF-alpha production from U937 cells stimulated with 100 ng/ml Pam3CSK4: 30 ng/mL
Substance: OPN-301 anti-TLR2 monoclonal antibody (mouse Toll-like Receptor 2 (TLR2) antibody, clone T2.5, HyCult Biotechnology)
